Measurements from paper PMC6803030 (Inorganic chemistry, 2019).
Where a chain is given by its changes, count along the chain named. Numbers in names are those of the source. Where two headings read alike, the source gives them in different places.

Assays:
Assay in all cases: SEC
mS100A9(H107A) = target: T1, mS100A9(H107A) (murine, UniProt P31725 2-113, H107A)
T1 sequence (looked up): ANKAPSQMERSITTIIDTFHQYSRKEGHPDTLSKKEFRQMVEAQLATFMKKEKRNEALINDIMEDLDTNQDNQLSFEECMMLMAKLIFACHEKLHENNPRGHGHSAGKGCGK

mS100A9(H105A) = target: T2, mS100A9(H105A) (murine, UniProt P31725 2-113, H105A)
T2 sequence (looked up): T1 sequence (looked up) with H104A, A106H

mS100A9(H103A) = target: T3, mS100A9(H103A) (murine, UniProt P31725 2-113, H103A)
T3 sequence (looked up): T1 sequence (looked up) with H102A, A106H

mS100A9(H103A)(H107A) = target: T4, mS100A9(H103A)(H107A) (murine, UniProt P31725 2-113, H103A | H107A)
T4 sequence (looked up): T1 sequence (looked up) with H102A

mS100A9(H105A)(H107A) = target: T5, mS100A9(H105A)(H107A) (murine, UniProt P31725 2-113, H105A | H107A)
T5 sequence (looked up): T1 sequence (looked up) with H104A

mS100A9(H103A)(H105A) = target: T6, mS100A9(H103A)(H105A) (murine, UniProt P31725 2-113, H103A | H105A)
T6 sequence (looked up): T1 sequence (looked up) with H102A, H104A, A106H

[1] = target: T7, mS100A9 (murine S100A9 subunit of calprotectin) (murine, UniProt P31725 1-113)
T7 sequence (looked up): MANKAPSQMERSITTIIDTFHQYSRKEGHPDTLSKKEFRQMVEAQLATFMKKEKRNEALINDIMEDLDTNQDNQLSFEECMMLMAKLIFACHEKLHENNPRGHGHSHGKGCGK

SEC [2] = target: the molecule itself
SEC [3] = target: the molecule itself; remark: listed apart in the source

B1: mS100A8 (murine S100A8 subunit of calprotectin) (natural protein, UniProt P27005 1-89, looked up)
chain: MPSELEKALSNLIDVYHNYSNIQGNHHALYKNDFKKMVTTECPQFVQNINIENLFRELDINSDNAINFEEFLAMVIKVGVASHKDSHKE
binding result (mS100A9(H107A)): binds
binding result (mS100A9(H105A)): binds
binding result (mS100A9(H103A)): binds
binding result (mS100A9(H103A)(H107A)): binds
binding result (mS100A9(H105A)(H107A)): binds
binding result (mS100A9(H103A)(H105A)): binds
binding result [1]: binds

B2: mCP ∆His3Asp variant, mS100A8(H83A)(H87A)/mS100A9(H21A)(D31A) (complex, murine)
chain 1: B1 chain with H83A, H87A
chain 2: T1 sequence (looked up) with H20A, D30A, A106H
binding result (SEC [2]): binds

B3: mCP(H103A), mS100A8/mS100A9(H103A) (complex, murine)
chain 1: B1 chain
chain 2: T1 sequence (looked up) with H102A, A106H
binding result (SEC [2]): binds

B4: mCP(H105A), mS100A8/mS100A9(H105A) (complex, murine)
chain 1: B1 chain
chain 2: T1 sequence (looked up) with H104A, A106H
binding result (SEC [2]): binds

B5: mCP(H107A), mS100A8/mS100A9(H107A) (complex, murine)
chain 1: B1 chain
chain 2: T1 sequence (looked up)
binding result (SEC [2]): binds

B6: mCP(H103A)(H105A), mS100A8/mS100A9(H103A)(H105A) (complex, murine)
chain 1: B1 chain
chain 2: T1 sequence (looked up) with H102A, H104A, A106H
binding result (SEC [2]): binds

B7: mCP(H103A)(H107A), mS100A8/mS100A9(H103A)(H107A) (complex, murine)
chain 1: B1 chain
chain 2: T1 sequence (looked up) with H102A
binding result (SEC [2]): binds

B8: mCP(H105A)(H107A), mS100A8/mS100A9(H105A)(H107A) (complex, murine)
chain 1: B1 chain
chain 2: T1 sequence (looked up) with H104A
binding result (SEC [2]): binds

B9: murine calprotectin (mS100A8/mS100A9 heterodimer) (complex)
chain 1: B1 chain
chain 2: T7 sequence (looked up)
binding result (SEC [3]): binds
